# From US20080166364A1 (COVX TECHNOLOGY IRELAND, published 2008)
# Non-standard residues stand in square brackets, D forms with d. No end group written: not given here. Phe(4-NO2) = N[C@@H](Cc1ccc([N+](=O)[O-])cc1)C(=O)O; Phe(4-COOH) = N[C@@H](Cc1ccc(C(=O)O)cc1)C(=O)O; Bpa = N[C@@H](Cc1ccc(C(=O)c2ccccc2)cc1)C(=O)O; Hyp = O=C(O)[C@@H]1C[C@@H](O)CN1; 0P linker = not defined here; acyl = not defined here; ThA = thiazolylalanine
# B1: Compound 35 (T): targeting peptide plus 0P linker (peptide)
# peptide: QXYQXLDELDXTLYDQFMLQQG
# modifications: not fully specified; N-term acyl cap; C-term NH2 cap; AcK at 2; HP at 5; 0P linker on K11
# B2: Compound 30 (T): targeting peptide plus 0P linker (peptide)
# peptide: QXYQPLDEXDXTLYDQFMLQQG
# modifications: not fully specified; N-term acyl cap; C-term NH2 cap; AcK at 2; 0P linker on K9; AcK at 11
# B3: Compound 24 (T): targeting peptide plus 4P linker (peptide)
# peptide: QXYQPLDELDXTLYDQFMLQQG
# modifications: not fully specified; N-term acyl cap; C-term NH2 cap; AcK at 2; 4P linker on K11
# B4: Compound 36 (T): targeting peptide plus 0P linker (peptide)
# peptide: QXYQPLDELDXTIYDQFMLQQG
# modifications: not fully specified; N-term acyl cap; C-term NH2 cap; AcK at 2; 0P linker on K11
# B5: Compound 37 (T): targeting peptide plus 0P linker (peptide)
# peptide: QXYQPLDEIDXTLYDQFMLQQG
# modifications: not fully specified; N-term acyl cap; C-term NH2 cap; AcK at 2; 0P linker on K11
# B6: Compound 44 (T): targeting peptide plus 0P linker (peptide)
# peptide: QXYQPLDELDXTLFDQFMLQQG
# modifications: not fully specified; N-term acyl cap; C-term NH2 cap; AcK at 2; 0P linker on K11
# B7: Compound 42 (T): targeting peptide plus 0P linker (peptide)
# peptide: QXYQPLDELDXTXYDQFMLQQG
# modifications: not fully specified; N-term acyl cap; C-term NH2 cap; AcK at 2; 0P linker on K11; HL at 13
# B8: Compound 61 (T): targeting peptide plus 0P linker (peptide)
# peptide: QXYQPLDELDXTLYDQFMLQQG
# modifications: not fully specified; N-term acyl cap; C-term NH2 cap; NicK (nicotinyl lysine) at 2; 0P linker on K11
# notes: only one IC50 printed, standing in column T
# B9: Compound 39 (T): targeting peptide plus 0P linker (peptide)
# peptide: QXYQPLDELDXTXYDQFMLQQG
# modifications: not fully specified; N-term acyl cap; C-term NH2 cap; AcK at 2; 0P linker on K11; HF at 13
# B10: Compound 48 (T): targeting peptide plus 0P linker (peptide)
# peptide: acyl-QK(Ac)YQPLDEK(Ac)DK(0P linker)TL[Phe(4-NO2)]DQFMLQQG-NH2
# modifications: reading uncertain; also: printed as Q(AcK)Y QPL DE(AcK) DK(0P)T L(NO2F)D QFM LQQ G
# B11: Compound 29 (T): targeting peptide plus 0P linker (peptide)
# peptide: QXYQPLDELDXTLYDQFMLQQG
# modifications: not fully specified; N-term acyl cap; C-term NH2 cap; AcK at 2; 0P linker on K11
# B12: Compound 41 (T): targeting peptide plus 0P linker (peptide)
# peptide: QXYQPLDELDXTXYDQFMLQQG
# modifications: not fully specified; N-term acyl cap; C-term NH2 cap; AcK at 2; 0P linker on K11; Nva at 13
# B13: Compound 45 (T): targeting peptide plus 0P linker (peptide)
# peptide: QK(Ac)YQ[Hyp]LDE[ThA]DK(0P linker)TL[Phe(4-NO2)]DQFMLQQG
# modifications: not fully specified (N-terminus, C-terminus); printed as Q(AcK)Y Q(HP)L DE(ThA) DK(0P)T L(NO2F)D QFM LQQ G; reading uncertain
# B14: Compound 62 (T): targeting peptide plus 0P linker (peptide)
# peptide: acyl-QK(Ac)YQPLDEK(Ac)DK(0P linker)TL[Phe(4-COOH)]DQFMLQQG-NH2
# modifications: reading uncertain; also: printed as Q(AcK)Y QPL DE(AcK) DK(0P)T L(CF)D QFM LQQ G
# B15: Compound 53 (T): targeting peptide plus 0P linker (peptide)
# peptide: QXYQPLDELDXTLYDQFMLQQG
# modifications: N-term acyl cap; C-term NH2 cap; (ClBnCarbamate)K at 2; 0P linker on K11
# notes: as for B8
# B16: Compound 33 (T): targeting peptide plus 0P linker (peptide)
# peptide: QK(Ac)YQPLDEK(0P linker)DETLYDQFMLQQG
# modifications: not fully specified (N-terminus, C-terminus); printed as Q(AcK)Y QPL DEK(0P) DET LYD QFM LQQ G; reading uncertain
# B17: Compound 52 (T): targeting peptide plus 0P linker (peptide)
# peptide: QXYQPLDELDXTLYDQFMLQQG
# modifications: not fully specified; N-term amido 2-PEG cap; C-term NH2 cap; AcK at 2; 0P linker on K11
# B18: Compound 51 (T): targeting peptide plus 0P linker (peptide)
# peptide: QXYQPLDELDXTLYDQFMLQQG
# modifications: not fully specified; N-term PyC (pyridinyl carboxylate) cap; C-term NH2 cap; AcK at 2; 0P linker on K11
# B19: Compound 57 (T): targeting peptide plus 0P linker (peptide)
# peptide: QNYQPLDELDK(0P linker)TL[Phe(4-COOH)]DQFMLQQG
# modifications: not fully specified (N-terminus, C-terminus); printed as QNY QPL DEL DK(0P)T L(CF)D QFM LQQ G; reading uncertain
# B20: Compound 47 (T): targeting peptide plus 0P linker (peptide)
# peptide: acyl-QK(Ac)YQ[Hyp]LDE[ThA]DK(0P linker)TL[Phe(4-COOH)]DQFMLQQG-NH2
# modifications: reading uncertain; also: printed as Q(AcK)Y Q(HP)L DE(ThA) DK(0P)T L(CO2H)FD QFM LQQ G
# B21: Compound 34 (T): targeting peptide plus 0P linker (peptide)
# peptide: QXYQXLDELDXTLYDQFMLQQG
# modifications: not fully specified; N-term acyl cap; C-term NH2 cap; AcK at 2; DHP at 5 (printed D(HP)); 0P linker on K11
# B22: Compound 84 (T): targeting peptide plus 0P linker (peptide)
# peptide: Ac-QK(Ac)YQPLDEK(Ac)DK(0P linker)TLYDQFMLQ-NH2
# modifications: reading uncertain
# notes: C-terminal truncation of 43(a) by 2 residues
# B23: Compound 86 (T): targeting peptide plus 0P linker (peptide)
# peptide: Ac-QK(Ac)YQPLDEK(Ac)DK(0P linker)TLYDQFM-NH2
# modifications: reading uncertain
# notes: C-terminal truncation of 43(a) by 4 residues
# B24: Compound 85 (T): targeting peptide plus 0P linker (peptide)
# peptide: Ac-QK(Ac)YQPLDEK(Ac)DK(0P linker)TLYDQFML-NH2
# modifications: reading uncertain
# notes: C-terminal truncation of 43(a) by 3 residues
# B25: Compound 83 (T): targeting peptide plus 0P linker (peptide)
# peptide: Ac-QK(Ac)YQPLDEK(Ac)DK(0P linker)TLYDQFMLQQ-NH2
# modifications: reading uncertain
# notes: C-terminal truncation of 43(a) by 1 residue
# Biological target: T1, human angiopoietin-2 protein (human, UniProt O15123 19-496)
# T1 construct: bought; also called Ang-2; Ang2
# T1 sequence (looked up): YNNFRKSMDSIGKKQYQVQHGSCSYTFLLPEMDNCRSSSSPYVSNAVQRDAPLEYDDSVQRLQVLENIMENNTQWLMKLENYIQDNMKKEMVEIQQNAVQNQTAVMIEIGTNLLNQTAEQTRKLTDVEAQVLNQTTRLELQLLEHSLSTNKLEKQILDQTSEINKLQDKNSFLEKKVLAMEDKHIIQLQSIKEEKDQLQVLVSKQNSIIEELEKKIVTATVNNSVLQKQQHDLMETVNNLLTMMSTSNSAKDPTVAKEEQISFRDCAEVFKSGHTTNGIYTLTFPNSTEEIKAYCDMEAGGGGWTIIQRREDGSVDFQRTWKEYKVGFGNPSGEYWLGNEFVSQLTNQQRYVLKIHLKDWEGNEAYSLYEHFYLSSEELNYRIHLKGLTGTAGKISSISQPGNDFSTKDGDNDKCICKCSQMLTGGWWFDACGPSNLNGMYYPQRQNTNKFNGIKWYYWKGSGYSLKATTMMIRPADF
# Experiment: competitive ELISA, coated Ang-2, 0.25 nM hTie-2-Fc; peptide alone
# Protocol: (§1) For competitive ELISA, human angiopoietin-2 protein and Tie-2-Fc (R&D Systems) were reconstituted without carrier protein. Mouse anti-human Tie-2 (Pharmingen) was used as the primary antibody and goat anti-mouse-IgG1-HRP (Pierce) was used as the secondary antibody. TMB substrate from Pierce was used.
# (§2) High-binding half-well plates were coated with Ang-2 (100 ng/well) in 50 μl PBS and incubated at 4° C. overnight. Plates were washed three times with washing buffer (0.1% Tween 20, PBS, pH 7.4) and blocked with Superblock (Scytek), 100 μl/well at room temperature (“RT”) for 1 hour. After removing the blocking solution, 50 μl of an Ang-2 binding peptide compound (1 uM and 5× serial dilution) in the presence of 0.25 nM hTie-2-Fc using Superblock as diluent was added and incubated at RT for 2 hours. Plates were washed 3 times with washing buffer. Then, 50 ul of 0.1 ug/ml mouse anti-human Tie-2 diluted in Superblock added and incubated at RT for 1 hour. Following incubation, 50 ul of 1:5,000 dilution of goat anti-mouse IgG-HRP in Superblock was then added and incubated at RT for one hour. After washing 3 times, 50 μl (25 μl TMB+25 μl H₂O₂) was added, and incubated for 3-5 minutes. Color development was monitored and stopped with 25 μl of 2 M H₂SO₄. OD450 nm with a correction wavelength of 540 nm was measured.
row,Binder,IC50
1,"QNYQPLDELDKTLYDQFMLQQG-NH2 (not fully specified (N-terminus); also: N-term acyl cap, acyl not given here, not conjugated to linker or antibody) [Compound 23: Ang-2 binding peptide alone]",27.8 nM

# Biological target: T1, human angiopoietin-2 protein
# Experiment: competitive ELISA, coated Ang-2, 0.25 nM hTie-2-Fc; T form
# Protocol: as §1, §2
row,Binder,IC50
1,B1,121 nM
2,B2,279 nM
3,B3,207 nM
4,B4,2410 nM
5,B5,1270 nM
6,B6,36.9 nM
7,QNYQPLDELDXTLYDQFMLQQG (not fully specified; N-term acyl cap; C-term NH2 cap; 0P linker on K11) [Compound 28 (T): targeting peptide plus 0P linker],175 nM
8,B7,1340 nM
9,XKYQPLDELDKTLYDQFMLQQG (not fully specified; 0P linker at the N-terminus (no acyl cap); C-term NH2 cap) [Compound 26 (T): targeting peptide plus 0P linker],32.3 nM
10,B8,83.9 nM
11,B9,4890 nM
12,acyl-QK(Ac)YQ[Hyp]LDE[ThA]DK(0P linker)TL[Bpa]DQFMLQQG-NH2 (reading uncertain) [Compound 46 (T): targeting peptide plus 0P linker],82.7 nM
13,QNYQPLDELDXTLYDQFMLQQG (not fully specified; N-term acyl cap; C-term NH2 cap; 4P linker on K11) [Compound 25 (T): targeting peptide plus 4P linker],300 nM
14,QRYQPLDELDXTLYDQFMLQQG (not fully specified; N-term acyl cap; C-term NH2 cap; 0P linker on K11) [Compound 59 (T): targeting peptide plus 0P linker],177 nM
15,QHYQPLDELDXTLYDQFMLQQG (not fully specified; N-term acyl cap; C-term NH2 cap; 0P linker on K11) [Compound 60 (T): targeting peptide plus 0P linker],214 nM
16,QKYQPLDELDXTLYDQFMLQQG (not fully specified; N-term acyl cap; C-term NH2 cap; 0P linker on K11) [Compound 27 (T): targeting peptide plus 0P linker],29 nM
17,acyl-QNYQPLDELDK(0P linker)TL[Bpa]DQFMLQQG-NH2 (reading uncertain; also: printed as QNY QPL DEL DK(0P)T L(BPA)D QFM LQQ G) [Compound 56 (T): targeting peptide plus 0P linker],92.2 nM

row,Binder,IC50
1,QXYQPLDELDXTLYDQFMLQQG (N-term acyl cap; C-term NH2 cap; AcK at 2; Dab at 11 carrying the 0P linker) [Compound 54 (T): targeting peptide plus 0P linker],292 nM
2,B10,82.4 nM
3,B11,83.3 nM
4,B12,1340 nM
5,B13,24.7 nM
6,B14,499 nM
7,B15,147 nM
8,QXYQPLDELDXTLYDQFMLQQG (N-term DCB (dichlorobenzoyl) cap; C-term NH2 cap; AcK at 2; 0P linker on K11) [Compound 49 (T): targeting peptide plus 0P linker],28.4 nM
9,QXYQPLDELDXTLYDQFMLQQG (N-term acyl cap; C-term NH2 cap; AcK at 2; Dap at 11 carrying the 0P linker) [Compound 55 (T): targeting peptide plus 0P linker],598 nM
10,B16,370 nM
11,B17,134 nM
12,B18,14.3 nM
13,QXYQPLDELDXTLYDQFMLQQG (N-term DFB (difluorobenzoyl) cap; C-term NH2 cap; AcK at 2; 0P linker on K11) [Compound 50 (T): targeting peptide plus 0P linker],33 nM
14,B19,110 nM
15,B20,43.3 nM
16,B21,224 nM

# Biological target: T1, human angiopoietin-2 protein
# Experiment: competition ELISA, coated Ang-2, competitor compound 43-0P-h38c2 10 ng/mL; T form
# Protocol: Recombinant human Ang-2 was coated on microtiter plates at 0.5 μg/mL in 100 μL , overnight at 2-8° C. Plates were washed between all steps and all subsequent incubations occurred at room temperature. Plates were blocked with 250 μL per well of SuperBlock for 1-3 hours. Test compounds were pre-mixed with compound 43 linked to linker (as shown in FIG. 3) and h38c2 AT 10 ng/mL. Peptide mixtures in 100 μL were then added at the listed final concentrations, then plates sealed, and incubated for 1-2 hours. Bound compounds 43 was detected with 100 uL of a 1:20,000 dilution of HRP-labeled anti-human IgG reagent for solution.
row,Binder,IC50
1,QXYQPLDEXDXTLYDQFMLQQG (N-term ac; C-term am; AcK at 2; AcK at 9; 0P linker on K11) [Compound 43(a) (T): targeting peptide plus 0P linker],139 nM
2,B22,190 nM
3,B23,847 nM
4,B24,444 nM
5,B25,111 nM
